The text below walks through data of article PMC10775387 (Research Square, 2023).

The target in this assay is T1, EBOV GP1,2 stalk–MPER epitope peptide (aa 626–640) (Ebola virus (EBOV), UniProt Q05320).
T1 chain: IIHDFVDKTLPDQGD
The assay is described as follows: crystal structure. To be noted: both partners purified.

B1: 3A6 Fab (Fab, V domains shown)
VH: EVQLLESGGGLVKPGGSLRLSCAASGFTFNEYMMNWVRQPPGKGLEWVSSISGTSTYINYADSVKGRFTISRDNAKNSLYLQMNSLRSDDTAMYYCARGSTGGYWGQGTLITVSS
VL: DIVMTQTPLSSAVTLGQPASISCRSSQRLVHSDGNTYLSWLHQRPGQPPRLLIYKVSLRFSGVPDRFSGSGAGTDFTLKISRVEAEDVGIYYCMQATQFPLTFGGGTKVEIK
For the molecule B1, the binding result is “binds”.
